Results reported in patent publication US20100056445A1, “ADIPONECTIN FOR THE TREATMENT AND DIAGNOSIS OF ALBUMINURIA” (THOMAS JEFFERSON UNIVERSITY, priority 2006, published 2010).
Entries after “also recorded” stand apart in the source; their conditions may differ.

Tests used:
AMPK = AMPK activity (p-Thr172 AMPKα) in podocytes by immunoblotting and confocal microscopy; format: cell-based, mouse
Source text: Western immunoblotting: Total protein from mouse podocytes was solubilized in lysis buffer containing 1% Triton X-100, Protease Inhibitor Cocktail (Mini Complete Protease Inhibitor Cocktail, Roche, Germany), PMSF, and phosphatase inhibitors. Protein was resolved on SDS-PAGE and transferred to a nitrocellulose membrane (Bio-Rad, Hercules, Calif.) as previously described (29). The membrane was immunoblotted initially with rabbit anti mouse phospho-AMPKα (p-AMPKα) monoclonal antibody or with rabbit anti AMPKα monoclonal (Cell Signaling Technology, New England Bio Labs, Boston, Mass.). Subsequently membranes were blotted with a secondary donkey anti-rabbit antibody (Amersham Biosciences, Piscataway, N.J.) conjugated to horseradish peroxidase (HRP). […]
(§1) Immunohistochemistry: Immunocytochemistry was performed as described previously (30). […] Fluorescence pictures were obtained using confocal laser fluorescence microscope (LSM-510, Carl Zeiss, Jena, Germany). […] Quantitation of p-AMPKα positive cells was performed on 50 glomeruli from 4 mice in each group.
as §1, with “p-AMPKa” for “p-AMPKα”, “group. […]” for “group.”

[1] = system: Adiponectin KO (Ad−/−) mice; test: Urine albumin/creatinine ratio in treated adiponectin KO mice; format: in vivo, mouse; conditions: AdKO mice at 4 months of age; gAd 25 μg twice daily for 10 days (gAd or fAd)
Procedure: Adiponectin administration and animal studies: The mice were treated with 25 μg of recombinant human globular domain adiponectin (gAd; PepROTech, Rocky Hill, N.J.) subcutaneously twice daily for 10 consecutive days. The control animals were given PBS alone. 24-hour urines from each mouse were collected twice: one week before the injections and on the last day of the injections. The urine albumin and creatinine were measured with a mouse Albuwell ELISA kit and a Creatinine Companion kit (Exocell, Philadelphia, Pa.) (25,26). The mice were sacrificed five hours after the final gAd injection under anesthesia. Portions of kidney cortex were fixed in buffered formalin and embedded in paraffin. A portion of kidney cortical tissue was cut into 1 mm^3 pieces and fixed in 2.5% glutaraldehyde
Interventional animal studies: The mice were treated with 25 μg of recombinant human globular domain adiponectin gAd (PepROTech, Rocky Hill, N.J.), administered 25 μg/mouse twice a day for 10 consecutive days or full-length adiponectin (fAd) was administered using an AAV vector (AAV2/8 CMV fAd virus 4×1011 GC/mouse for 10 days). A separate group of Ad−/− mice were treated with 5-aminoimidazole-4-carboxamide-1-beta-D-ribonucleoside (AICAR) with a single i.p. dose of 300 mg/kg. The control animals were given PBS alone or control AAV. 24-hour urines from each mouse were collected before treatment and on the last day of the treatment period. The urine albumin and creatinine were measured with a mouse Albuwell ELISA kit and a Creatinine Companion kit (Exocell, Philadelphia, Pa.) (26, 25). As an index of oxidant stress timed urine collections were also analyzed for hydrogen peroxide by Amplex red assay (Invitrogen/Molecular Probes, Carlsbad, Calif.) following the manufacturer's protocol. Portions of liver, muscle and kidney was snap-frozen in liquid nitrogen for RNA isolation. An additional aliquot of normal kidney was frozen in OCT for immunofluorescent staining. […]

B1: adiponectin: 30 kDa adipocyte-secreted protein; in the first series of tests the recombinant globular domain was used, later gAd or fAd (protein, UniProt Q15848 19-244, looked up)
Adiponectin: ETTTQGPGVLLPLPKGACTGWMAGIPGHPGHNGAPGRDGRDGTPGEKGEKGDPGLIGPKGDIGETGVPGAEGPRGFPGIQGRKGEPGEGAYVYRSAFSVGLETYVTIPNMPIRFTKIFYNQQNHYDGSTGKFHCNIPGLYYFAYHITVYMKDVKVSLFKKDKAMLFTYDQYQENNVDQASGSVLLHLEVGDQVWLQVYGEGERNGLYADNDNDSTFTGFLLYHDTN
AMPK activity (AMPKα phosphorylation on Thr-172) in podocytes (AMPK; globular adiponectin 3 μg/ml, 24 h, serum-free, normal glucose): increased | Effect on the high glucose (HG) decrease of AMPK activity in podocytes (AMPK; high glucose exposure plus adiponectin): prevented; also recorded: blocked | Urine albumin/creatinine ratio (albuminuria) [1]: normalized albuminuria levels; also recorded: restores normal albuminuria
